We go through 78 variants from the supplement of paper PMC7125110.

± gives the standard error. This sample holds only a part of the variants without activity.

B1: glmS ribozyme (parent)
chain: AUAAAAGCGCCAGAACUACAGAAAUGUAGUUGACGAGGAGGAGGUUUAUCGAAUUUUCGGCGGAUGCCUCCAAA

Variants of B1 are the subject of one data set. Put plainly: self-cleavage kobs at 2500 uM GlcN6P; higher = faster cleavage; RNA array. The conditions noted are these: with glucosamine-6-phosphate. A digest of the protocol: (§1)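 Barcoded ribozyme variants were transcribed in situ on sequenced MiSeq chips by E. coli RNA polymerase. At 37 °C, a hybridised Cy3 probe tracked them while glucosamine-6-phosphate (40 μM to 10 mM) in HEPES/KCl/Mg(OAc)2 buffer flowed in and tiles were imaged over ~14 h. Per-tile medians of signals normalised to baseline and to non-cleaving reference variants were fit to one- or two-exponential decays, giving kobs. kcat and KM came from weighted Michaelis–Menten fits across concentrations.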
On to A12G G63A C67A, for which the “self-cleavage kobs at 2500 uM GlcN6P” value is under 1e-05 s⁻¹. Same read-out and setting: the result for C50G C68G C70U reads 7.27e-05 ± 1.1e-05 s⁻¹; that for G40C C70G C71U, 7.87e-05 ± 1.6e-05 s⁻¹. U45A A52U C71U: the “self-cleavage kobs at 2500 uM GlcN6P” value came to 0.000244 ± 9.4e-05 s⁻¹. Regarding G13A G32C U45G, the “self-cleavage kobs at 2500 uM GlcN6P” value was determined as 4.68e-05 ± 1.9e-05 s⁻¹. Regarding U30C G38C U46C, the “self-cleavage kobs at 2500 uM GlcN6P” value is under 1e-05 s⁻¹. Same read-out and setting: the result for C8G C10G A39C reads under 1e-05 s⁻¹; that for A39U G41U C50G, under 1e-05 s⁻¹.

On to A36U G40U A64C, for which the “self-cleavage kobs at 2500 uM GlcN6P” value was under 1e-05 s⁻¹. With U31C G32U U54C C58A, the “self-cleavage kobs at 2500 uM GlcN6P” value turned out to be 0.000137 ± 4.2e-05 s⁻¹. For G7U U57C C68G, the “self-cleavage kobs at 2500 uM GlcN6P” value is under 1e-05 s⁻¹. On the same count and under the same terms, the result for A6G C16U G40C U46A G66U reads under 1e-05 s⁻¹.

As for A15U G38U U69G, the “self-cleavage kobs at 2500 uM GlcN6P” value was 0.000183 ± 4.2e-05 s⁻¹. On the same count and under the same terms, as for C8A G29C A42G U45C U46G, the figure is under 1e-05 s⁻¹. Take A12G U49G A64G: the “self-cleavage kobs at 2500 uM GlcN6P” value was determined as 9.53e-05 ± 2.8e-05 s⁻¹. Consider A33C A53G U55G, for which the “self-cleavage kobs at 2500 uM GlcN6P” value was 0.000103 ± 2.8e-05 s⁻¹. Regarding A52U G60A G66U, the “self-cleavage kobs at 2500 uM GlcN6P” value was under 1e-05 s⁻¹. Same read-out and setting: as for G32C G35C G43C C58U U69C, the figure is under 1e-05 s⁻¹; as for G41U U45G U49A, under 1e-05 s⁻¹.

As for A39C U54A U55C, the “self-cleavage kobs at 2500 uM GlcN6P” value came out at 0.00249 ± 0.00052 s⁻¹. With C10U G60C G62U, the “self-cleavage kobs at 2500 uM GlcN6P” value is under 1e-05 s⁻¹.

C11U U30G C68G: the “self-cleavage kobs at 2500 uM GlcN6P” value was under 1e-05 s⁻¹. As to G32U C34A G43C C71G, the “self-cleavage kobs at 2500 uM GlcN6P” value was under 1e-05 s⁻¹.

Regarding C16U G51U A52C C68A C70U C71U, the “self-cleavage kobs at 2500 uM GlcN6P” value is under 1e-05 s⁻¹.

In the case of A14G G32U U45A, the “self-cleavage kobs at 2500 uM GlcN6P” value stood at 0.00147 ± 0.00059 s⁻¹. As to A6U G44U U46A A52U U56G C58U C70U, the “self-cleavage kobs at 2500 uM GlcN6P” value is under 1e-05 s⁻¹. For A36G G40C C61U G63C A64C, the “self-cleavage kobs at 2500 uM GlcN6P” value is under 1e-05 s⁻¹. Regarding A33G A42U U47A A53G, the “self-cleavage kobs at 2500 uM GlcN6P” value was under 1e-05 s⁻¹.

As for C34U C50G C68A U69A, the “self-cleavage kobs at 2500 uM GlcN6P” value came out at 0.000141 ± 4.9e-05 s⁻¹. As to C8A G32C G40U U55A, the “self-cleavage kobs at 2500 uM GlcN6P” value is under 1e-05 s⁻¹. On to G7U G62C G63C U69C, for which the “self-cleavage kobs at 2500 uM GlcN6P” value was under 1e-05 s⁻¹.

Turning to C10A C11U A36C, the “self-cleavage kobs at 2500 uM GlcN6P” value is under 1e-05 s⁻¹. In the case of G40U G43U U54A, the “self-cleavage kobs at 2500 uM GlcN6P” value is under 1e-05 s⁻¹. The same measure, in the same setting: as for C10G C11U G32A U45C, the figure is under 1e-05 s⁻¹. In the case of G7A U45A U49G, the “self-cleavage kobs at 2500 uM GlcN6P” value is under 1e-05 s⁻¹. Still for that read-out and setting: the result for A14U C50G G60C reads 0.000405 ± 0.00014 s⁻¹; that for C50G C58G G62C, 0.000553 ± 0.00021 s⁻¹. Same read-out and setting: as for A33C G37A G60C, the figure is under 1e-05 s⁻¹; as for G43U U56C C67G, under 1e-05 s⁻¹. As for G29C A48C U49C, the “self-cleavage kobs at 2500 uM GlcN6P” value was under 1e-05 s⁻¹. On the same count and under the same terms, as for C34U A36C A39U, the figure is under 1e-05 s⁻¹; as for U46G G63U C70A, under 1e-05 s⁻¹; as for G7U G32C C68A, under 1e-05 s⁻¹. A33C G37A G40C A42C: the “self-cleavage kobs at 2500 uM GlcN6P” value is under 1e-05 s⁻¹. On to C34A G43A C50G U54C, for which the “self-cleavage kobs at 2500 uM GlcN6P” value is under 1e-05 s⁻¹. Still for that read-out and setting: the result for U45G A48C reads 5.95e-05 ± 2.2e-05 s⁻¹. For the variant U30C G41C U45G, the “self-cleavage kobs at 2500 uM GlcN6P” value was under 1e-05 s⁻¹. As to U30A G38A A52G, the “self-cleavage kobs at 2500 uM GlcN6P” value was under 1e-05 s⁻¹. On to C34A A48C A64U, for which the “self-cleavage kobs at 2500 uM GlcN6P” value is under 1e-05 s⁻¹. For A6U G29A G41U U65C C68U, the “self-cleavage kobs at 2500 uM GlcN6P” value is under 1e-05 s⁻¹.

With U56G G60A U65G, the “self-cleavage kobs at 2500 uM GlcN6P” value was under 1e-05 s⁻¹. As for G7U G29C A42C, the “self-cleavage kobs at 2500 uM GlcN6P” value was under 1e-05 s⁻¹. On the same count and under the same terms, the result for A14U U30C A53C reads under 1e-05 s⁻¹. Take C11G G38U A42U G43A: the “self-cleavage kobs at 2500 uM GlcN6P” value was under 1e-05 s⁻¹. Regarding C11G U30G U49A, the “self-cleavage kobs at 2500 uM GlcN6P” value was under 1e-05 s⁻¹. For the variant G35U U47A C61A, the “self-cleavage kobs at 2500 uM GlcN6P” value is under 1e-05 s⁻¹.

As for C11U G40A C71U, the “self-cleavage kobs at 2500 uM GlcN6P” value was found to be 0.000785 ± 0.00023 s⁻¹. On to G35C G38U G59C U69G, for which the “self-cleavage kobs at 2500 uM GlcN6P” value is under 1e-05 s⁻¹. As to A12C C16U U57A, the “self-cleavage kobs at 2500 uM GlcN6P” value stood at 4.57e-05 ± 1.5e-05 s⁻¹. Still for that read-out and setting: the result for G35U G60A C68U reads under 1e-05 s⁻¹; that for G29U A42C C61A, under 1e-05 s⁻¹; that for U30C A53U G66U U69G, 0.000128 ± 2.7e-05 s⁻¹.

Regarding A12U G44U C70U, the “self-cleavage kobs at 2500 uM GlcN6P” value amounted to 5.27e-05 ± 1.8e-05 s⁻¹. For C8U C34U G63C, the “self-cleavage kobs at 2500 uM GlcN6P” value was under 1e-05 s⁻¹. For A12U G35A A39G U45C C61U, the “self-cleavage kobs at 2500 uM GlcN6P” value is under 1e-05 s⁻¹. The same measure, in the same setting: the result for C11U G51U C70U reads 6.92e-05 ± 3.4e-05 s⁻¹. On to U55G U65C, for which the “self-cleavage kobs at 2500 uM GlcN6P” value is 0.000396 ± 8.6e-05 s⁻¹.

In the case of A36G C61G C67G U69G C71A, the “self-cleavage kobs at 2500 uM GlcN6P” value is under 1e-05 s⁻¹. The same measure, in the same setting: the result for C8G C11A A33C reads under 1e-05 s⁻¹; that for A6U A14G U56A, 0.000586 ± 0.00023 s⁻¹. Regarding A15C U45G U54A, the “self-cleavage kobs at 2500 uM GlcN6P” value came to 0.000589 ± 0.00012 s⁻¹. The same measure, in the same setting: as for G13C C61A, the figure is under 1e-05 s⁻¹; as for U45G U47A, 0.00816 ± 0.0022 s⁻¹. With G29U A36U A42U U56G G66U, the “self-cleavage kobs at 2500 uM GlcN6P” value is under 1e-05 s⁻¹.

With A15G G51A U57C, the “self-cleavage kobs at 2500 uM GlcN6P” value was under 1e-05 s⁻¹.

On to A12G U30G U45G U46A C68U, for which the “self-cleavage kobs at 2500 uM GlcN6P” value was under 1e-05 s⁻¹. Consider A15U C58G C68U, for which the “self-cleavage kobs at 2500 uM GlcN6P” value was determined as 6.36e-05 ± 2.9e-05 s⁻¹. In the case of G43C C67A U69G, the “self-cleavage kobs at 2500 uM GlcN6P” value was 0.000151 ± 6e-05 s⁻¹.

The variants in the next data set derive from B1. Put plainly: self-cleavage kobs at 10000 uM GlcN6P; higher = faster cleavage; RNA array. The conditions noted are these: with glucosamine-6-phosphate. A digest of the protocol: as §1
C8A G29C A42G U45C U46G: the “self-cleavage kobs at 10000 uM GlcN6P” value was under 1e-05 s⁻¹. Regarding A12G U49G A64G, the “self-cleavage kobs at 10000 uM GlcN6P” value turned out to be 7.02e-05 ± 2e-05 s⁻¹.

Turning to A33C A53G U55G, the “self-cleavage kobs at 10000 uM GlcN6P” value came out at 0.000163 ± 2.9e-05 s⁻¹.

On to G32U C34A G43C C71G, for which the “self-cleavage kobs at 10000 uM GlcN6P” value was under 1e-05 s⁻¹. G40U G43U U54A: the “self-cleavage kobs at 10000 uM GlcN6P” value was under 1e-05 s⁻¹.

Regarding U45G A48C, the “self-cleavage kobs at 10000 uM GlcN6P” value is 0.000117 ± 2.2e-05 s⁻¹. Take A12C C16U U57A: the “self-cleavage kobs at 10000 uM GlcN6P” value stood at 0.000157 ± 3.4e-05 s⁻¹.

G29U A42C C61A: the “self-cleavage kobs at 10000 uM GlcN6P” value is under 1e-05 s⁻¹. Consider U55G U65C, for which the “self-cleavage kobs at 10000 uM GlcN6P” value was 0.000628 ± 0.00013 s⁻¹. On to C8G C11A A33C, for which the “self-cleavage kobs at 10000 uM GlcN6P” value was under 1e-05 s⁻¹. Turning to A6U A14G U56A, the “self-cleavage kobs at 10000 uM GlcN6P” value was found to be 0.00142 ± 0.00018 s⁻¹.
